{"source": "the DeepSol protein solubility set", "data": [{"assay": "soluble on expression in E. coli; label from the status in PepcDB or PDB records", "values": [{"sequence": "MGSDKIHHHHHHMMDFDFLEGKRLTEDVALDETMVWNEDIEMLDLHLVATSALIGVVHRVSYELLSRYLPNDYTAVVVETLARHVKAVPTGTRVAVGVRVVGVVGNRVKFRGIVMSGDEKILEAEFVRAIVPREKLRRLALEKAEKTSRLFGI", "soluble on expression in E. coli": "soluble"}, {"sequence": "MGSDKIHHHHHHMMDMLMSTPNYNASLLAMATAALNALDSSHAGAAHATEAQQSHFLCNWMAQALKDKSFDKAIAGELTLWVRQGRSMGSSAQLKRLLQTIRHQYSTLAEHTMGLGNALAKMLEDARQQDVIVYTDTPVKTKLKLDADGQSSIIVCADEYQQHIRDGELIKPISLFVRADEKFLAKLAFSHGLMLTQGDKKSSLIKHHKSYKLFPKNQLPSLALLTFH", "soluble on expression in E. coli": "not soluble"}, {"sequence": "MGSDKIHHHHHHMMELLNVNNLKVEFHRVEGIVKAVDGISYKLNKGESLGIVGESGSGKSVSVLSLLRLINRNGRIVDGEAIFLGKDLLKLNKEELRNIRGKDISIIFQNPMTSLNPIIRVGIQVMEPIIWHRLMKNEEARERAIELLERVGIPESPKRFLNYPFQFSGGMRQRVMIAMALACHPKLLIADEPTTALDVTIQAQIMELLQELKEEYGMSVIFITHDLSVATNFCDRIITMYAGKIVEEAPVEEILKTPLHPYTKGLLNSTLEIGSRGKKLVPIPGNPPNPTKHPSGCKFHPRCSFAMEICQREEPPLVNISENHRVACHLIKGESK", "soluble on expression in E. coli": "not soluble"}, {"sequence": "MGSDKIHHHHHHMMENSLNIIEKMNPNQKINYDRVFQKVRESWERDSVRPKILLHSCCAPCSTYSLEYLTQSADVTIYFANSNIHPSTEYTRRKMVQEQFVKDFNERTGNNVQFIAAEYEPNVFLQMVRQKHLENEPEGGKRCTSCFEMRLDIVAEKALELGFDYFGSALTLSPKKNSQLINEIGLDIQKIYDVNYLPSDFKKNNGYKRSVEMCKEYDVYRQCYCGCIFAAKAQGIDLKEQNREAIKFIRNQS", "soluble on expression in E. coli": "not soluble"}, {"sequence": "MGSDKIHHHHHHMMEYWIRRALEVVKTPFLLFDLSVVEKKYLEMKAALKKADIYYAVKANSHPRIISLLARLGSNFDVASKGEIEKLLALGVDGKRMSFGNTIKREEDIAFAYKNGIRLFAVDSEMEVEKVAINAPGSFVFVRVETDGADADWPLSRKFGTNPEHALQLLSYASKMKLIPAGLSFHVGSQNLNPESWKKAIEIAGRVFKKAMRSGLNLFLLNVGGGFPVQHTKPIPSMEEIGKAIEEAIDENLWFVHNLKVIAEPGRYMVGEAGWLVTKVLLKSERSGEKWVYIDAGVFHGLAETIQNFEYEIRVLGKEREELEEYHLAGPTCDSVDVIYDRIFLPKSITLNDLVCFINAGAYTVEYNTRFNGIEPPKMVFIEELTEISIEEKIKTRVLD", "soluble on expression in E. coli": "not soluble"}, {"sequence": "MGSDKIHHHHHHMMGGEFTLTEREAEYLFRIIDSSINIFRRHQFFLWAQGELQGLLPHGMLICLFDEGNGQAVNIERFSRTDMDEIRFSELCRPDGGIVFRAMSAWSAGKNQPLLVCPNNSHTPTYKRFSNDLKRENLQRIAAHGMFDTNGRTTCFFTFTQISAALSERHAYFLELLMPHMHMALVRMLFHERHHKQGAVGERSRKLITDRETEILRHVQAGKSNHEIAQLLYISPLTVKNHIQKILKKLDVNNRAHAVAKAMALKITL", "soluble on expression in E. coli": "not soluble"}, {"sequence": "MGSDKIHHHHHHMMGKTEYLDYYSGKRVLVTGGAGAVGSNLVRRLLDLGAFVIVIDNLSSGYTWLLPQDAPNLLFIEGDITNDVDLKRVFNEEPEIIFHLAAFFANQNSVDYPEKDLWVNGFGTLKLLEYTRIYGKVERFVYASSGCSIYPSDAPMPFKEDLPISSWMSTPYQITKALGELYCNYFYKMYDIPITKARFFNSFGPGEVPGQYRNVIPNFIYWAMLGKPLPITGTGEETRDFTYVGDIVDGLLRMGYYREAIGEAFNLAAGREVKIKYLAEKVNELTGNTAGIVFKPRRKWDTKPRMLASNEKAKKVLGFNPDPDFDGRLAETVEWFKQNWELIKKSAEFGPGVSSAVR", "soluble on expression in E. coli": "not soluble"}, {"sequence": "MGSDKIHHHHHHMMIDTPAVLIDRERLTANISRMAAHAGAHEIALRPHVKTHKIIEIAQMQVDAGARGITCATIGEAEIFAGAGFTDIFIAYPLYLTDHAVQRLNAIPGEISIGVDSVEMAQATAGLREDIKALIEVDSGHRRSGVTATASELSQIREALGSRYAGVFTFPGHSYGPGNGEQAAADELQALNNSVQRLAGGLTSGGSSPSAQFTDAIDEMRPGVYVFNDSQQITSGACTEKQVAMTVLSTVVSRNVSDRRIILDAGSKILSTDKPAWIDGNGFVLGNPEARISALSEHHATIFWPDKVLLPVIGEQLNIVPNHACNVINLVDEVYVREADGTFRTWKVVARGRNN", "soluble on expression in E. coli": "not soluble"}, {"sequence": "MGSDKIHHHHHHMMKMAEFIMVVGTSSNSGKTTITAGLCRILANKGYKVAPFKSQNMSLNSRVAKEDGEIAIAQYTQSLACRVEPSVHFNPILLKPKGNFISQVIVHGRPYKDMNYNEYRKNKDFFLKKIKESLEILDREYDYVIMEGAGSCCEINLLKDDIANLRIAELVNAKAILVADIDRGGVFASIYGTIKLLPENWRKLIKGIIINKFRGNVEVLKEGIEKIEELTGIPVLGIVPYDENLVLPEEDSQVLQSMRSFGNAKSGVEINVVRFSKISNFTDLDPLRYDAFIKFIDFDDDITGDILIFPGTRSSTKEAYYLKQHNFDEKVLEFLKDGGIVIGICGGYQVLGKELIDKEKKESDVGDIEGLKIFDAKTYFGNDKVVKNSCGFLEIDNKTFNVKGYEIHEGFTYSKEKPLIKIERGFGNCGNGFDGSIKKFGDGLAIGTYFHGIFENYEFRNYIINLIRKRKGLDEIYGDSYKDSIEKSLNYFAEVVERSVNLKPLGINAT", "soluble on expression in E. coli": "not soluble"}, {"sequence": "MGSDKIHHHHHHMMNIPPFINTIIGQQPYPLLFAIISGSHLYGFPSPDSDYDLRGVHILPVEEVVGLETGNETIEVSEIREALEIDLVTHDVKKFFLMLLKKNGYVLEQLYSPLVLTTSPEAEELKFIAKGCITRNHYYHYIGFAATQWKLFENERTYRLKPLLYVYRVLLTGIYLMQTGIVEANLMKLNEVFNLPYIHDLITQKIAGKEKSVVSNVNVDFHQIEYERLRHKLQEVYESSRLPEVPSANAALHNLLVRLRTNVKLRK", "soluble on expression in E. coli": "not soluble"}, {"sequence": "MGSDKIHHHHHHMMQIYLVGGAVRDQLLGLPIKDRDWLVVGSTAEELLSQGYQQVGKDFPVFLNPNTREEYALARTERKSGTGYTGFICDFNPDITLEQDLMRRDLTINAIAQDMAGQYHDPYNGIADLKKGILRHISPAFAEDPLRVLRVARFAARYHQLGFKIAPNTLALMKKIANNGELRQLSPERVWQETEKALHEQDPQVYFAILQKIDALKVLCPEISVFNSDSIQYRSDMTDFVHAMPILKQTTLLTEKTDYHKSAVRFAALCHDVGKALSTANIPPYSHDNKITSIAYLRNVCQRFKVPNYVQELAELTCQYHSHIHHALALHTKTILTLFNKLDVWRKPKRFEELMLVCLADSLTQTEMNYTDYPQYKFLLCLYQAALAVDVQQIISEGFQHKAIRVELDRRREIAIQIKKQQFIEQNLT", "soluble on expression in E. coli": "not soluble"}, {"sequence": "MGSDKIHHHHHHMMSGHNKWANIKHRKMAQDAKKSKIFTKLIREIIVAAREGGGNIETNPRLRAAVERARAENMPKENIERAIKRGTGELEGVDYQEVIYEGYAPGGVAVYIRALTDNKNRTAQELRHLFNKYGGSLAESGSVSWIFERKGVIEISRDKVKDLEELMMIAIDAGAEDIKDAEDPIQIITAPENLSEVKSKLEEAGYEVEAKVTFIPKNTVKVTGKDAEKVLEFLNALEDMDDVQEVYSNFEMDDKEMEEILSRLEG", "soluble on expression in E. coli": "not soluble"}, {"sequence": "MGSDKIHHHHHHMMSWADKYRPKNIDDVILNSEIRKQITEWIESWKEGIPKKRSLILYGSQGTGKTTTAYAIAGTFGVPVVEMNASDQRNRDSMRGTALMASLYGDLFVESAKRPSKVILIDEADNMFERGGDTGGIYELSKIIKNSANPIVITMNDIFEFRKKNYASDVISASLTIEMKQYGRKLDKNYNEFRRNIKARLIFILKNEGYTLPDQVVDRIIDRNMPDIRSMINDLEASAVSGTNISDQSSRDVPEIVYYMVDKAFKRNYDDTLRSIYGSDIDDSYYVSWIDENLPLKTVDLQDLVSAYEVISYADHILWAMERRRHYELMAFPMEIAGGVAYYIENMKHEYVKYQSPSYISQMSKTKEKRHAMMSLALKIGLLIHMGAQRTSEDLWFYSLLYQHNEKLRTFFEEKLNLTQGEENVLTRSE", "soluble on expression in E. coli": "not soluble"}, {"sequence": "MGSDKIHHHHHHMMTQLSAPTLTKDPLTTQDRQIIATIVNQSDYSKNCKPEDVVTIWISEDDTTVWVKMIHGYARYHKQSFKRAVAEVKASLSAPVKCNHKEERELKQAAEKIGLLGDCDWLSLSVQYYPDKVIGHAGCYTSQKPQLLTPLAEWDFTLPKWNMPAAICPDCGGHGCGNCGYRGTRAEDLCKPVDGYRLTYVGRTDLQTAHNVYLDGEFLGILFKVRNADELWENDPKTYYWRCGDGVRYWSVKEAVEVLSRTTAPIELPQVCRELVAA", "soluble on expression in E. coli": "not soluble"}, {"sequence": "MGSDKIHHHHHHMNADDIRAMIQPAQVHRDVYISDAVYRLEMRHLFTNAWIFVGHDSQTPNKGDYITTQVGDQPVIMVRHTDGEVKVLYNRCPHKGTKIAIDRAGNTGKFFRCPYHAWSFKTDGCLLAIPLKKGYEGTGLSESQNGKGMQAVGAVYNYRGFVFARLAEDGIGFDEFFGGSLSSIDNMVDRAPEGRVEISGPPLRYMHKCNWKMLVENQTDTCHPMVAHESSAGTAVKIYEQMGNPEPRPPAMQIIAPFMSPYEFFEDMGIRTWPNGHGHTGVNMSIHSNYDAIPGYFEAMIESHGEERAKAILDESRHNTVYFPNVMVKAPLTQLRNFIPLGADRTLAESYVYRLVGAPEQLTAMSAMYNRMINAPTSIVGHDDLEMYERAQEGLHAEGMQWVDIRRLHTGPENFETEAVENGTTERQMRNQFHAWAKFMTMSMEDAPGVAAQ", "soluble on expression in E. coli": "not soluble"}, {"sequence": "MGSDKIHHHHHHMNANQFLKAVSQLQGWRECAFLLALAERSFPNYALFADAVGLKTGGKMRQLLDLAWDMLQKDVADAAIPQLLSKLETLCPNVDEYDAYGVYPAFDFCQLLEQALLNRLNPNKHRATEASQLATRTVMDFVEMSEGEGMDENELVRVFEHHPLLKDDKLFQRDTVMALKKQRTPKEAFLAELRAGAANDGVSNLGISLEG", "soluble on expression in E. coli": "not soluble"}, {"sequence": "MGSDKIHHHHHHMNDIIKLIKSIIIEMDMEAYIVGGYIRDKLMNPKNSASDLDIAFQGDFEKILDELRKRKIKVSSIKKDSSVYRITVNGYCADISKIKGKNINEDLSKRDFTVNAIALDIKNNKIVDPFDGRVHIKRRILQVIDEKSFEDDAVRILRGIRFYIKYGMHFNGYTEEYIRKHSKNIMKFPRDRVLDEIIHIIHEDENGVFFEVMDQYMILKNILPYMEELKTVGKCKHHLVDAFTHMNTAYHVFKDMKKKYLKVKNINIEEFNKDIGVYNELDYLAFAIFTHDIGKYVSYKKEGQKISFKGHDEKGLEIIEKVCDELKFPNDGKKIVCSVVKNHMYPLMLFKLKEDERKQEEYEFFNKFDQYVPHIIVASFCDVYATTIYIDENNEKDRFTSFISELVVKYREFINLKKIKYIDGNDLIDMGFRGNDIGNILNELNKMLYIEGSKTKKEQQDFVLRMKDKL", "soluble on expression in E. coli": "not soluble"}, {"sequence": "MGSDKIHHHHHHMNDIKMIRIGITGGTGFLGNRLVELLSKTNTPITCLTRESSNIETIEDKVKVIKGDLSNLESLEDFVKGQDVIVHLAAQVSRTTKKEYYQSNVLGTENLCKAINQYNPECRLINCSSIAAYRIKGWCKLQFTDYAKSKLSADRVVDSYMKTIKATTIIPGIIYGAGNNAFISAIIENLEKGKLFFAKGGEKFAPLSYIDDLCDLFIRAIYNEESVGNKYFGIKYSERGIHDFIRIIASKTYNKAPDAVLSKNKLMAKAVFWQFVYSFFKIKKAPTLSIRMVDIMSINYSLSEEQRTNNLGWEPSVDMEEGVDNALLSYNLKKDSTNRS", "soluble on expression in E. coli": "not soluble"}]}]}
